In assay [1] the test system is critically ill patients with COVID-19. Description: Clinical outcome of critically ill COVID-19 patients given leronlimab. It counts as in vivo, human. As to conditions: by Day 14, 10 critically ill COVID-19 patients.
The subject of assay [2] is CD8 and CD4 T-cells (PD-1, LAG-3, cleaved caspase 3). Description: Immunophenotyping / high parameter flow cytometry of T-cells and exhaustion markers in critical COVID-19 patients. It counts as in vivo, human. As to conditions: for exhaustion markers (PD-1, LAG-3, cleaved caspase 3) on CD8 and CD4 T-cells: after 700 mg leronlimab, all ten patients.
The next assay addresses CCR5 (Homo sapiens, UniProt P51681). As to conditions: day 7, all ten critical COVID-19 patients, 700 mg leronlimab.
A further assay deals with IL-6. Description: Plasma cytokine/chemokine panel in critical COVID-19 patients, IL-6. It counts as in vivo, human. As to conditions: Day 7 post-leronlimab vs Day 0, critical COVID-19 patients.
The next assay has as its system CCL5/RANTES. Description: Plasma cytokine/chemokine panel in critical COVID-19 patients, CCL5/RANTES. It counts as in vivo, human.

“Also recorded” adds a separate entry of the source.

CCR5, sequence (P51681 whole entry): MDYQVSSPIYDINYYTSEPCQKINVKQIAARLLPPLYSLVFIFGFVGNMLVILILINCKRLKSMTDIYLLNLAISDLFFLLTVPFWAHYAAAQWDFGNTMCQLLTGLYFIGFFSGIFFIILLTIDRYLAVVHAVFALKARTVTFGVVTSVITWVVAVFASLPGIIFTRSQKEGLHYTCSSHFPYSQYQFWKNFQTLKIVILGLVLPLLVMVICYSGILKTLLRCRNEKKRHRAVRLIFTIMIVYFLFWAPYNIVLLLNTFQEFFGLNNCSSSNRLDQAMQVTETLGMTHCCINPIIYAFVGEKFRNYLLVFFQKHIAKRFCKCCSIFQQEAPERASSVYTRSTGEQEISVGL
Source text for CCL5/RANTES: (§1) To determine the extent and phenotype of “cytokine storm” cytokines and chemokines in critical COVID-19, a panel of 38 cytokines/chemokines was quantified in plasma from the ten critical COVID-19 patients at Day 0, Day 3 and Day 7 post-leronlimab therapy.
Source text for IL-6: as §1

B1: leronlimab: a humanized monoclonal antibody directed against CCR5 (antibody, chains of the INN, looked up, V domains shown)
VH: EVQLVESGGGLVKPGGSLRLSCAASGYTFSNYWIGWVRQAPGKGLEWIGDIYPGGNYIRNNEKFKDKTTLSADTSKNTAYLQMNSLKTEDTAVYYCGSSFGSNYVFAWFTYWGQGTLVTVSS
VL: DIVMTQSPLSLPVTPGEPASISCRSSQRLLSSYGHTYLHWYLQKPGQSPQLLIYEVSNRFSGVPDRFSGSGSGTDFTLKISRVEAEDVGVYYCSQSTHVPLTFGQGTKVEIK
B1: the “patients extubated and released” value in assay [1] is reported as 4. Moreover, the patients surviving entry in assay [1] is “six out of 10”. In addition, the “exhaustion markers (PD-1, LAG-3, cleaved caspase 3) on CD8 and CD4 T-cells” value in assay [2] is “improvement in exhaustion markers”; in assay [2] (listed as Leronlimab) it was “improvements in exhaustion markers”. Besides, the “immune restoration including T-cell numbers” value in assay [2] (all patients) is reported as “immune restoration”. Also, the “T-cell level and CD4/CD8 ratio” value in assay [2] (as little as 3 days post-therapy) was “begins to restore T-cell level and correct the gross alteration of CD4/CD8 ratio”. Also, in assay [2] (by Day 7 after 700 mg leronlimab), the “immune profile compared to normal control blood” value is “resembled the normal control blood”. Besides, the “expression of PD-1 and LAG3 on T-cells” value in assay [2] (following 7 days of leronlimab, compared to Day 0) is given as “significantly decreases”. In addition, the “blockade of CCR5 as determined by receptor occupancy” value with CCR5 is around 100%. Also, the “plasma IL-6 level change” value with IL-6 was “reduces IL-6; also recorded: significantly decreased; also recorded: dropped dramatically”. Besides, the “plasma CCL5/RANTES level change” value in the assay with CCL5/RANTES (Day 7 post-leronlimab, critical COVID-19 patients) is “remained high; also recorded: did not drop as abruptly”; in the assay on CCL5/RANTES (Day 14, patients where data was available), “initiation of a drop”.

The record behind these values is patent US11952373B2, “Method of treating hypercytokinemia by administering the CCR5/CCL5 (RANTES) interaction inhibitor maraviroc” (priority 2020, dated 2024).
